{"source": "patent US9035028B2", "about": "“Temperature sensitive conjugate compositions” (Emory University, priority 2010, dated 2015)", "key": {"[1]": {"target": "T1, αv/β3 integrins on vascular cells (Homo sapiens, UniProt P05106+P06756)", "T1 construct": "host or cells: vascular cells (not specified)", "T1 sequence (P06756 31-889 limits assumed)": "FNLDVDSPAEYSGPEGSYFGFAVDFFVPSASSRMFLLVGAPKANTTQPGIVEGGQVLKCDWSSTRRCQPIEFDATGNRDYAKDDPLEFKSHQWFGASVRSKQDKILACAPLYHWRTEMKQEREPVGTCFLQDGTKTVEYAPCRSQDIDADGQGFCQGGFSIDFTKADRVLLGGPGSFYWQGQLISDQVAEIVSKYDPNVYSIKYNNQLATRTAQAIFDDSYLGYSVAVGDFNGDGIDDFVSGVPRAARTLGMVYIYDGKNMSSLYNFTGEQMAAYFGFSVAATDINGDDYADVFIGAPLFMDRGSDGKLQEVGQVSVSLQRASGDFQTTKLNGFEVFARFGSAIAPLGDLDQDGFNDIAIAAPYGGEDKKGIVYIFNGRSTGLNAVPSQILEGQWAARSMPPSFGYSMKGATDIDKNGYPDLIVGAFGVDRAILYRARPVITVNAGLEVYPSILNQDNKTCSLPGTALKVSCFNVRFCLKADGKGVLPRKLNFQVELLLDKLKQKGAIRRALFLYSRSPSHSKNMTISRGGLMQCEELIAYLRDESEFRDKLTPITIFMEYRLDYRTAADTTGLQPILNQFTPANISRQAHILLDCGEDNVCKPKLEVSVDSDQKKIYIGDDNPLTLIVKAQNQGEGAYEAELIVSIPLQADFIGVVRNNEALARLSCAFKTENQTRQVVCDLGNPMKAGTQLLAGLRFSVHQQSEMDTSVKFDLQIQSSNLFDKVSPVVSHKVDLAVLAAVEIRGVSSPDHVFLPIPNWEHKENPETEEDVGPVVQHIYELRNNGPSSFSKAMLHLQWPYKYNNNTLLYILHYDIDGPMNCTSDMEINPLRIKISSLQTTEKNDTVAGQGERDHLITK", "T1 sequence (P06756 891-1048 partner limits assumed)": "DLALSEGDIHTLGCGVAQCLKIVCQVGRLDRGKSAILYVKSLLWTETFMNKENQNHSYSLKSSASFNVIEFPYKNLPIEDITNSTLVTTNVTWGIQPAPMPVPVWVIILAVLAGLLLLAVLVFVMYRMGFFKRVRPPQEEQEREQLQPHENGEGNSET", "T1 sequence (P05106 27-788)": "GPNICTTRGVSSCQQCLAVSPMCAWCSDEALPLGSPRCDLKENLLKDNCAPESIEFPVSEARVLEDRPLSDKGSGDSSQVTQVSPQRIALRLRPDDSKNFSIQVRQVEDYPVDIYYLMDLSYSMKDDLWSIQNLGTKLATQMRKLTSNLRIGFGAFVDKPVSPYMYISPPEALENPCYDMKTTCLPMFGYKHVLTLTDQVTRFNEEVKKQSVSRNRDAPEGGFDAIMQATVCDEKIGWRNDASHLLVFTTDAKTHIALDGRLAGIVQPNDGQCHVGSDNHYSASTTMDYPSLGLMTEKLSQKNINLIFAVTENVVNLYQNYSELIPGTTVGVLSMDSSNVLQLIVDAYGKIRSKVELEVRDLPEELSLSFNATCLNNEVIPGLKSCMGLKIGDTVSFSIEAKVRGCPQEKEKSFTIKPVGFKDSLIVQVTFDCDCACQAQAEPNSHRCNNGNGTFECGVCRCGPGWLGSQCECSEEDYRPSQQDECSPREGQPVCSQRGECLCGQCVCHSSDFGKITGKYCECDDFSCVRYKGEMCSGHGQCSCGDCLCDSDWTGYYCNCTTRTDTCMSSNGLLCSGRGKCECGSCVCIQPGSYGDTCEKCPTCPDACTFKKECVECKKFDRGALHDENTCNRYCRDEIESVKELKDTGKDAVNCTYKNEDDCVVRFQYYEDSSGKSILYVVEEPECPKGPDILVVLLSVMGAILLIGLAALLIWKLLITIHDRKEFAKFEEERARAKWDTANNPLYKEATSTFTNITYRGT", "details": "cited from earlier work"}, "[2]": {"tested_on": "activated human platelets", "assay": "Microscopic analysis of platelet aggregates", "assay_type": "cell-based", "details": "both temperatures (22° C. and 37° C.)", "protocol": "For the microscopic analysis of platelet aggregates at different temperatures, non-diluted human PRP was placed onto a glass slide and ADP was added to a final concentration of 20 μM, in the presence and absence of EMP-scFv (50 μg/mL). Abciximab was used as a positive control at a concentration of 10 μg/mL. The experiments were conducted at 22° C. and 37° C. Phase contrast microscopy images were taken using an Olympus CKX41 microscope."}, "[3]": {"target": "T2, GPIIb/IIIa (integrin alphaIIb beta3) on human platelets (human, UniProt P08514 32-1039; P05106 27-788)", "T2 construct": "whole, on cells; also called GPIIb/IIIa receptor; glycoprotein IIb/IIIa", "assay": "flow cytometry, resting and ADP-activated human platelets, 22° C., 32° C. and 37° C."}, "[4]": {"assay": "Circular dichroism (CD) spectra and thermal transition profile", "assay_type": "physicochemical", "protocol": "The mathematical fitting of the CD data allowed the determination of the transition temperature (Tt) resulting from conformational change of EMP as the temperature is increased. The mathematical fitting of the CD data to the van't Hoff equation allowed the determination of the transition temperature (Tt) resulting from conformational change of EMP and EMP-scFv as the temperature is increased.\nCircular dichroism (CD) spectra were recorded on a Jasco J-810 spectropolarimeter equipped with a PFD-425S Peltier temperature control unit in 0.1 cm sealed quartz cells at concentrations of 7.5 μM (EMP), 8.4 μM (scFv) and 4.1 μM (EMP-scFv) in 50 mM sodium phosphate buffer, pH 7.4. Temperature/wavelength CD-scans were performed within the temperature range from 5° C. to 35° C. with equilibration for 10 min at each temperature. Spectra were obtained from 260 to 190 nm at a resolution of 0.5 nm and at a scanning speed of 50 nm/min. The CD curves represented the average of five measurements and were smoothed using the means-movement method on the interval analysis of the spectral manager program. CD data are reported as mean residue ellipticity ([θ], deg cm^2 dmol^−1). Thermal transition curves were plotted by the mean residue ellipticity as a function of temperature for the disappearance of the random coil and the appearance of the β-turn structure."}, "[5]": {"target": "T3, GPIIb/IIIa on human platelets (Homo sapiens, UniProt P05106+P08514)", "T3 construct": "endogenous in cells", "assay": "Flow cytometry: binding to human platelets", "details": "regardless of the temperature", "protocol": "Human blood was collected by venipuncture with a 21-gauge butterfly needle from healthy volunteers and anticoagulated with citric acid. Platelet-rich plasma (PRP) was obtained by centrifugation (GS-6R centrifuge, Beckman Coulter) at 100×g at room temperature for 10 min.\nHuman PRP was diluted 1/50 in modified Tyrode's buffer containing 2 mM MgCl2 and 2 mM CaCl2. Platelets were either activated by addition of 20 μM ADP, or non activated, followed by the incubation with 15 and 50 μg/mL EMP-scFv fusion protein or EMP at 22° C., 32° C. and at 37° C. for 15 min. Mouse platelets were either pre-activated for 10 min by addition of 0.1 U/mL thrombin (Enzyme Research Laboratories), or non activated, before the incubation with 15 and 50 μg/mL of EMP-scFv fusion protein at 22° C., 32° C. or 37° C. for 15 min. In both, human and mouse samples, EMP-scFv was detected via 15 min in-dark incubation with secondary antibody (Penta-His Alexa Fluor 488, Qiagen) directed against the His(6)-tag of the single-chain antibody.\nIn re-warming experiments, activated and non-activated diluted human PRP was incubated with 15 and 50 μg/mL of EMP-scFv for 15 minutes at 22° C., followed by a 15-min in dark incubation with secondary Penta-His Alexa Fluor 488 antibody. Half of the reaction was then fixed with 1× Cell FIX, while the other half was incubated at 37° C. for either 15 or 30 minutes, before being fixed and measured in FACS."}, "GPIIb/IIIa": {"target": "GPIIb/IIIa (Homo sapiens, UniProt P05106+P08514)", "assay": "Specificity of scFv (studies in applicant's laboratory)", "assay_type": "binding"}, "[6]": {"details": "in contrast to conformation unspecific GPIIb/IIIa inhibitors; cited from earlier work"}}, "note": "Where a SMILES comes first, the peptide text is derived from it. Bridges are numbered along the chain shown (N, C = ends). [ ]: non-standard residue; d: D form. hArg = N=C(N)NCCCC[C@H](N)C(=O)O; Mpa = O=C(O)CCS", "data": [{"molecule": "N=C(N)NCCCC[C@@H]1NC(=O)CCSSC[C@@H](C(N)=O)NC(=O)[C@@H]2CCCN2C(=O)[C@H](Cc2c[nH]c3ccccc23)NC(=O)[C@H](CC(=O)O)NC(=O)CNC1=O", "note": "[eptifibatide] ([Mpa][hArg]GDWPC-NH2; disulfide 1-7)", "values": [{"measurement": "ligand binding to αv/β3 integrins on vascular cells", "setting": "[1]", "value": "antagonize ligand binding"}]}, {"molecule": "abciximab [reference compound]", "values": [{"measurement": "aggregation of activated human platelets (microscopy)", "setting": "[2]", "value": "abolishes aggregation"}, {"measurement": "ligand binding to αv/β3 integrins on vascular cells", "setting": "[1]", "value": "antagonize ligand binding"}]}, {"molecule": "EMP alone (elastin-mimetic polypeptide without scFv) (other) MAVPAVGIPAVGIPAVGIPAVGIPAVGIPAVGIPAVGIPAVGIPAVGIPAVGIPAVGIPAVGIPAVGIPAVGIPAVGIPAVGIPAVGIPAVGIPAVGIPAVGIPAVGIPAVGIPAVGIPAVGIPAVGIPAVGIPAVGIPAVGIPAVGIPAVGIPAVGIPAVGIPAVGIPAVGIPAVGIPAVGIPAVGIPAVGIPAVGIPAVGIPAVGIPAVGIPAVGIPAVGIPAVGIPAVGIPAVGIPAVGIPAVGIPAVGIPAVGIPAVGIPAVGIPAVGIPAVGIPAVGIPAVGIPAVGIPAVGIPAVGIPAVGIPAVGIPAVGIPAVGIPAVGIPAVGIPAVGIPAVGIPAVGIPAVGIPAVGIPAVGIPAVGIPAVGIPAVGIPAVGIPAVGIPAVGIPAVGIPAVGIP", "values": [{"measurement": "binding result", "setting": "[3]", "value": "no binding (tested: 15 and 50 µg/mL)"}]}, {"molecule": "EMP: elastin mimetic polypeptide, sixteen repeats of monomer (IPAVG)5, SEQ ID NO: 11, approximately 35 kDa (protein) MAVPAVGIPAVGIPAVGIPAVGIPAVGIPAVGIPAVGIPAVGIPAVGIPAVGIPAVGIPAVGIPAVGIPAVGIPAVGIPAVGIPAVGIPAVGIPAVGIPAVGIPAVGIPAVGIPAVGIPAVGIPAVGIPAVGIPAVGIPAVGIPAVGIPAVGIPAVGIPAVGIPAVGIPAVGIPAVGIPAVGIPAVGIPAVGIPAVGIPAVGIPAVGIPAVGIPAVGIPAVGIPAVGIPAVGIPAVGIPAVGIPAVGIPAVGIPAVGIPAVGIPAVGIPAVGIPAVGIPAVGIPAVGIPAVGIPAVGIPAVGIPAVGIPAVGIPAVGIPAVGIPAVGIPAVGIPAVGIPAVGIPAVGIPAVGIPAVGIPAVGIPAVGIPAVGIPAVGIPAVGIPAVGIPAVGIPAVGIPAVGIP", "values": [{"measurement": "transition temperature (Tt)", "setting": "[4]; CD data at 198 and 220 nm, van't Hoff fit", "value": "approximately 26 °C"}, {"measurement": "binding to resting or activated platelets", "setting": "[5]", "value": "did not bind"}]}, {"molecule": "scFv: activation-specific GPIIb/IIIa-blocking single-chain antibody, SEQ ID NO: 13 (protein) scFv: MAEVQLVESGGGLVQPGGSLRLSCAASGFMFSRYAMSWVRQAPGKGPEWVSGISGSGGSTYYADSVKGRFTVSRDNSKNTLYLQMNSLRAEDTAVYYCARIFTHRSRGDVPDQTSFDYWGQGTLVTVSSGSASAPKLEEGEFSEARVSSELTQDPAVSVALGQTVRITCQGDSLRNFYASWYQQKPGQAPTLVIYGLSKRPSGIPDRFSASSSGNTASLTITGAQAEDEADYYCLLYYGGGQQGVFGGGTKLTVLRQPKAAPSVTLFPPSSAAAGSEQKLISEEDLNS", "values": [{"measurement": "conformational changes in CD", "setting": "[4]; temperature increased up to 35° C.", "value": "No significant conformational changes"}, {"measurement": "specificity of binding", "setting": "GPIIb/IIIa", "value": "GPIIb/IIIa-specific and binds to activated platelets exclusively"}, {"measurement": "bleeding time", "setting": "[6]", "value": "does not prolong bleeding time"}]}]}
